For orientation: Km means the concentration of substrate that gives half-maximal velocity. For orientation: Vmax means the top rate of the reaction or transport when substrate is in excess. The kcat is the number of substrate molecules converted per active site and unit of time at saturation. Usually kcat/Km stands for the second-order rate constant that governs catalysis at low substrate concentration.

Substrate in data set [1]: O=C(O)C(=O)C[C@H](O)CO
Nature of the data set: purified protein. The following applies: 100 mM HEPES/NaOH pH 7.5, 37 °C, 5 mM NAD+. The format is biochemical, Caulobacter vibrioides.

Substrate in data set [2]: NC(=O)c1ccc[n+]([C@@H]2O[C@H](COP(=O)(O)OP(=O)(O)OC[C@H]3O[C@@H](n4cnc5c(N)ncnc54)[C@H](O)[C@@H]3O)[C@@H](O)[C@H]2O)c1
Kind of data set: purified protein. It counts as biochemical, Caulobacter vibrioides. Conditions: 100 mM HEPES/NaOH pH 7.5, 37 °C, varied: cofactor.

Substrate in data set [3]: NC(=O)c1ccc[n+]([C@@H]2O[C@H](COP(=O)(O)OP(=O)(O)OC[C@H]3O[C@@H](n4cnc5c(N)ncnc54)[C@H](O)[C@@H]3O)[C@@H](O)[C@H]2O)c1
Nature of the data set: purified protein, by the assay type. Details: initial rate kinetics of purified recombinant enzyme, classical Michaelis-Menten fit. The text has this: The five genes of the D-xylose operon, i.e., CCNA_00862–00866, were amplified by PCR using gene-specific primers (Supplementary Table 1) and the genomic DNA of C. crescentus NA1000 as template. The PCR products were cloned into pET (Novagen) expression vectors (Supplementary Table 1) and successful cloning was confirmed by sequencing (LGC genomics, Berlin). For expression, the respective plasmids were transformed into the E. coli BL21-pRIL (DE3) or Rosetta (DE3, Stratagene) (Supplementary Table 1). Overexpression was performed in LB medium containing the appropriate antibiotic. The cells were grown at 37 °C to an OD600 of 0.6–0.7 and induced with 1 mM isopropyl-β-D-thiogalactopyranoside. After induction, the cultures were further incubated at 37 °C for 4 h or at 30 °C or at 21 °C for 18–22 h (Supplementary Table 1), respectively. Cells were collected by centrifugation (15 min, 8630 × g, 4 °C) and the pellets were stored at −70 °C. Due to the choice of the vectors, all of the C. crescentus enzymes were N-terminally histidine tagged. The recombinant L-isoleucine dioxygenase from B. thuringiensis (BtDO) contained a C-terminal 6× histidine tag[47]. […] For XLA and KDXD, the inhibition constants for D-xylonate and KGSA, respectively, had to be fitted based on the conversion data, as these enzymes are analysed in coupled enzyme assays. […]

Substrate in data set [4]: NC(=O)c1ccc[n+]([C@@H]2O[C@H](COP(=O)(O)OP(=O)(O)OC[C@H]3O[C@@H](n4cnc5c(N)ncnc54)[C@H](OP(=O)(O)O)[C@@H]3O)[C@@H](O)[C@H]2O)c1
Kind of data set: purified protein. The format is biochemical, Caulobacter vibrioides. Conditions: 100 mM HEPES/NaOH pH 7.5, 37 °C, varied: cofactor.

Substrate in data set [5]: O=CCCC(=O)C(=O)O
Nature of the data set: purified protein. The format is biochemical, Caulobacter vibrioides. The following applies: 100 mM HEPES/NaOH pH 7.5, 37 °C, co-substrate NAD+.

Substrate in data set [6]: O=CCCCC=O
Nature of the data set: purified protein. It counts as biochemical, Caulobacter vibrioides. The following applies: 100 mM HEPES/NaOH pH 7.5, 37 °C, NAD(P)+.

Substrate in data set [7]: O=CCCC(=O)O
Kind of data set: purified protein. The format is biochemical, Caulobacter vibrioides. The following applies: 100 mM HEPES/NaOH pH 7.5, 37 °C, NAD(P)+.

Substrate in data set [8]: O=C1O[C@H](CO)[C@H](O)[C@H]1O
Nature of the data set: purified protein. Conditions: 100 mM HEPES/NaOH pH 7.5, 37 °C, 5 mM NAD+. The format is biochemical, Caulobacter vibrioides.

B1: 2-Keto-3-deoxy-D-xylonate dehydratase (KDXD) (Caulobacter vibrioides NA1000) (protein)
chain: MGVSEFLPEDWKAATLLGRIDFGEGPTPVLVRGGRVEDVSKIAPTVADLMNAFQPGAVIPRGEDKGPLEALDIRPVWEDPDGAAPVKLLAPVDLQCLKAAGVTFAVSTLERVIEERARGDAGEALKIRTLLAERMGGDLKSVEPGSQGAQRLKDALIADGLWSQYLEVAIGPDAEIFTKGPTLSSMGWGDQVGVRYDSHWNNPEPEVVLLCDGSGLIRGAALGNDVNLRDFEGRSALLLSKAKDNNASCAIGPFFRLFDETFGLDDVRSAEVELKITGRDNFVLDGKSNMSLISRDPAVLAGQAYGKQHQYPDGFALFLGTMFAPIQDRDTPGQGFTHKVGDRVRVSTPKLGVLENEVTTCDKAKPWTFGISALIRNLAGRGLL
notes: full-length gene in pET vector, N-terminal His tag, E. coli expression, Ni-TED and size exclusion
In the case of B1, in data set [1], the Km was 210 µM, the Vmax stood at 107 µmol/min/mg, the kcat worked out at 74 s⁻¹ and the kcat/Km came out at 352000 M⁻¹ s⁻¹.

B2: D-xylose dehydrogenase (XDH) (Caulobacter vibrioides NA1000) (protein)
chain: MSSAIYPSLKGKRVVITGGGSGIGAGLTAGFARQGAEVIFLDIADEDSRALEAELAGSPIPPVYKRCDLMNLEAIKAVFAEIGDVDVLVNNAGNDDRHKLADVTGAYWDERINVNLRHMLFCTQAVAPGMKKRGGGAVINFGSISWHLGLEDLVLYETAKAGIEGMTRALARELGPDDIRVTCVVPGNVKTKRQEKWYTPEGEAQIVAAQCLKGRIVPENVAALVLFLASDDASLCTGHEYWIDAGWR
notes: as for B1
For B2, in data set [2] (co-substrate D-xylose), the Km is 160 µM, the Vmax was found to be 120 µmol/min/mg, the kcat was 57 s⁻¹ and the kcat/Km was found to be 356000 M⁻¹ s⁻¹. Moreover, the Km in data set [3] is 170 µM.

B3: α-Ketoglutarate semialdehyde dehydrogenase (KGSADH) (Caulobacter vibrioides NA1000) (protein)
chain: MTDTLRHYIGGERVAADAPAESLNPSNTNDVVAKVPMGGQAEVDAAVDAARKAFPAWADASPEVRSDLLDKVGSTIIARSADIGRLLAREEGKTLAEGIGETVRAGRIFKYFAGEALRRHGQNLESTRPGVEIQTYRQAVGVYGLITPWNFPIAIPAWKAAPALAFGNTVVIKPAGPTPATANVLADIMAECGAPAGVFNMLFGRGSMGDALIKHKDVDGVSFTGSQGVGAQVAAAAVARQARVQLEMGGKNPLIVLDDADLERAVAIALDGSFFATGQRCTASSRLIVQDGIHDKFVALLAEKVAALRVGDALDPNTQIGPAVSEDQMETSYRYIDIAASEGGRVVTGGDRIKLDNPGWYVRPTLIADTQAGMRINNEEVFGPVASTIRVKSYEEALEIANGVEFGLSAGIATTSLKHARHFQRYARAGMTMVNLATAGVDYHVPFGGTKSSSYGAREQGFAAVEFFTQTKTSYSWS
notes: as for B1
Regarding B3, the Km in data set [2] (co-substrate KGSA) is 600 µM; in data set [4], 20 µM; in data set [5] it was 20 µM; in data set [6] it was 2510 µM; in data set [7], 400 µM. In addition, the Vmax in data set [2] (co-substrate KGSA) and in data set [5] was 49 µmol/min/mg throughout. Also, the kcat in data set [2] (co-substrate KGSA) and in data set [5] was 41 s⁻¹ each time. Besides, the kcat/Km was determined as 68000 M⁻¹ s⁻¹ in data set [2] (co-substrate KGSA) and 2.05e+06 M⁻¹ s⁻¹ in data set [5].

B4: Xylonolactonase (XLA) (Caulobacter vibrioides NA1000) (protein)
chain: MTAQVTCVWDLKATLGEGPIWHGDTLWFVDIKQRKIHNYHPATGERFSFDAPDQVTFLAPIVGATGFVVGLKTGIHRFHPATGFSLLLEVEDAALNNRPNDATVDAQGRLWFGTMHDGEENNSGSLYRMDLTGVARMDRDICITNGPCVSPDGKTFYHTDTLEKTIYAFDLAEDGLLSNKRVFVQFALGDDVYPDGSVVDSEGYLWTALWGGFGAVRFSPQGDAVTRIELPAPNVTKPCFGGPDLKTLYFTTARKGLSDETLAQYPLAGGVFAVPVDVAGQPQHEVRLV
notes: as for B1
As to B4, in data set [8], the Km worked out at 450 µM, the Vmax turned out to be 944 µmol/min/mg, the kcat amounted to 497 s⁻¹ and the kcat/Km was 1.1e+06 M⁻¹ s⁻¹.

(Values after article PMC7046635, “A combined experimental and modelling approach for the Weimberg pathway optimisation” (Nature Communications, 2020).)
